Assay [1] relates to Pdx1-Cre GEMM model of PDAC. Briefly: Survival in Pdx1-Cre GEMM model of PDAC. The assay is classed as in vivo, mouse. Conditions: 5 mg/kg i.p. q5d. The method, then: (§1) FIGS. 12A-D. DKK3 expression in mouse PSCs and effects of treatment with DKKC mAb on survival. (FIG. 12A) Western blot analysis of recombinant human and mouse DKK3 under denaturing and non-denaturing conditions using JM6-6-1 mAb. (FIG. 12B) Expression of murine DKK3 in murine PSCs (MPSC) or 3T3 cells was determined by RT-PCR. 18S was used as loading control. (FIG. 12C) Proliferation of MPSCs treated with DKK3 mAb was measured at 7 days by MTS assay. ***p<0.001 vs. PBS. (FIG. 12D) Pdx1-Cre; Kras LSL-G12D;Trp53fl/+ model of PDAC was treated with DKK3 mAb JM6-6-1 or control mAb JM4-74 (5 mg/kg i.p. q5d). Kaplan-Meier survival curves are shown (log rank test). At 0% survival, the right line is JM6-6-1, the middle lines is PBS, and the left line is Control Ab.
Two GEMMs of PDAC that differ in the pancreas-specific promoter to target oncogenic Kras expression (Hingorani et al., 2005; Hingorani et al., 2003) were used in the experiments to evaluate the effect of DKK3 neutralizing mAb (Pdx1-Cre; Kras^LSL-G12D; Trp53^R172H/+ and P48-Cre; Kras^LSL-G12D; Trp53^fl/fl). To evaluate the effects of genetic ablation of DKK3 on pancreatic cancer development, DKK3-null mice were crossed to P48-Cre; Kras^LSL-G12D;Trp53^R172H or P48-Cre; Kras^LSL-G12D; Trp53^fl/fl mice (Hingorani et al., 2005; Hingorani et al., 2003), and the progeny were monitored until they were moribund. […]

In the next assay the target is murine DKK3 (Mus musculus, UniProt Q9QUN9). The assay is described as follows: Non-denaturing Western blot of recombinant DKK3 with JM6-6-1. The assay is classed as binding. The method, then: as §1
Human and murine DKK3 share 83% protein sequence homology by BLAST analysis and therefore it was anticipated that it was likely that JM6-6-1 could cross-react with host DKK3. […] When KPC mice (P48-Cre; Kras^LSL-G12D;Trp53^fl/fl) were treated with JM6-6-1 (red solid line, FIG. 5H), median survival increased by 43% from 43 to 61.5 days compared to PBS or isotype control mAb (p=0.005, HR 0.24, 95% CI 0.01-0.30; FIG. 5H).
For orientation: Immunoblotting shows a protein as a band on a membrane.

The subject of the next assay is KPC cells. The assay is described as follows: Syngeneic orthotopic model with luciferase-labeled KPC cells in C57/BL6 mice. The assay is classed as in vivo, mouse. The protocol: FIGS. 6A-F. DKK3 blockade is associated with increased tumor immune infiltrates and improves response to checkpoint inhibitor therapy. (FIG. 6A) T cells were stimulated, treated with DKK3 (5-10 μg/mL) and proliferation was measured by CFSE assay. In a syngeneic orthotopic model with luciferase-labeled KPC cells, tumors were examined for CD3 and CD8 expression by IHC (FIG. 6B) and additional markers of T cell activity were measured by quantitative PCR (FIG. 6C). Mice in this model were treated with either control IgG, DKK3 mAb JM6-6-1, αCTLA4 or the combination JM6-6-1+αCTLA4 and tumor growth was measured by IVIS imaging to 25 and 190 days (FIG. 6D). Survival in this orthotopic implantation model is shown in (FIG. 6E). Using a GEMM (FIG. 6F), KPC/DKK3^+/+ (black line) or KPC/DKK3^−/− (blue line) mice were treated with αCTLA4 or control IgG and the Kaplan Meier survival curve is shown. *p<0.05, **p<0.01, ***p<0.001.
An orthotopic nude mouse model of PDAC using BxPC3 cancer cells labeled with firefly luciferase (BxPC3-FL) co-injected with HPSCs has been previously described (Hwang et al., 2008). Mice received intrapancreatic injections of BxPC3-FL (1×10^6 per mouse) with HPSC-shControl or HPSC-shDKK3 in a tumor-to-stroma ratio of 1:0 or 1:3 in 50-μL of HBSS and tumor growth was monitored using IVIS imaging (Hwang et al., 2008). In addition, a syngeneic immunocompetent DKK3 null model was used, provided by Dr. C. Niehrs (Barrantes Idel et al., 2006), that was injected with murine PDAC cells (termed “KPC cells”) isolated from tumors arising in a GEMM of PDAC (Pdx1-Cre; Kras^LSL-G12D;Trp53^R172H/+) (Hingorani et al., 2005; Hingorani et al., 2003) and labeled with luciferase.
In order to determine whether manipulation of DKK3 can affect the response to checkpoint inhibitors, mice in the syngeneic orthotopic C57/BL6 model were treated with either isotype control IgG, DKK3 mAb JM6-6-1, α-CTLA4 or the combination of JM6-6-1 with α-CTLA4. […] With additional follow-up to day 200 (FIG. 6D, right), tumors in all groups continued to grow albeit at a slower rate in the JM6-6-1 and combination JM6-6-1+α-CTLA4 groups (FIG. 6D). […] Combination treatment JM6-6-1+α-CTLA4 was associated with a highly significant improvement in survival (p=0.004) and median survival was not reached in this group (FIG. 6E). […] In the combination treatment group, 80% of mice were alive and appeared healthy at 800 days and were electively sacrificed. In the JM6-6-1 group, 20% of mice were still alive at 726 days when they were electively sacrificed.

Sequence of murine DKK3 (Q9QUN9 23-349): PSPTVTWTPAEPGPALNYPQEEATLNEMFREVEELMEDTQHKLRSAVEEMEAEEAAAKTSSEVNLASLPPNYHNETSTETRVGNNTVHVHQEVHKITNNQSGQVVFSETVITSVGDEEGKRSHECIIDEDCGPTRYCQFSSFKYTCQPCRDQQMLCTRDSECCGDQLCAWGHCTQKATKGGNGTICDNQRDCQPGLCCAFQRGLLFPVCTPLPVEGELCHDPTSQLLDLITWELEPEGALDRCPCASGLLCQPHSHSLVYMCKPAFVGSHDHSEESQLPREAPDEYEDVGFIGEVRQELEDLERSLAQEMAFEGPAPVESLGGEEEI

B1: JM6-6-1: monoclonal antibody against human DKK3; heavy chain variable SEQ ID NO: 19, light chain variable SEQ ID NO: 20 (antibody, V domains shown)
VH: EVKLVESGGGLVKPGGSLKLSCAASGFTFTIEYMAWIRQTPEKRLEWVASISSGGDDIYYADNVKGRFTISRDNAKNTLYLQMSSLKSEDTAIYYCSRSLSDWGQGTTLTVSSAKTTPPSDYPLA
VL: MTQTPLSLPVSLGDQASISCRSSQSILHSNGHTYLEWYLQKPGQSPKLLIYKVSNRFSGVPDRFSGSGSGTDFTLKISRVEAEDLGVYYCFQGSHVPFTFGSGTKLEIERADAAQ
In the case of B1, the effect on survival entry in assay [1] was “equally effective”. The “cross-reactivity with murine DKK3” value in the assay with murine DKK3 is recorded as “recognizes murine DKK3 although more weakly than human DKK3”. Also, in the assay on KPC cells (726 days), the “mice alive at 726 days” value is listed as 20%. Besides, in the assay with KPC cells (at elective sacrifice), the “gross tumors in pancreata of remaining mice” value is “no gross tumors were identified”. Also, the “tumor growth by luciferase signal” value in the assay on KPC cells (compared to control IgG) was “growth inhibition at 22 days and onward”. In the assay on KPC cells (syngeneic orthotopic C57/BL6 model), the median survival was determined as 75 days.

(Values after patent publication US20210340232A1, “MONOCLONAL ANTIBODIES AGAINST HUMAN DICKKOPF3 AND USES THEREOF” (Board of Regents, The University of Texas System, priority 2018, published 2021).)
